The text below walks through data of patent publication US20180142007A1 (AXON NEUROSCIENCE, published 2018).

The experiment addresses T1, misdisordered truncated tau 151-391/4R (human, UniProt P10636 468-708).
T1 construct: Recombinant, from clone tau40 in pET-17b, expressed in E. coli; numbered on the longest human tau isoform 2N4R (441 aa); An added start methionine is not mentioned; also called tauΔ(1-150;392-441)/4R; misdisordered tau II
The experiment is described as follows: binding ELISA, plate coated with Tau 151-391/4R. A general note: ELISA stands for enzyme-linked immunosorbent assay.

T1 sequence (P10636 468-708): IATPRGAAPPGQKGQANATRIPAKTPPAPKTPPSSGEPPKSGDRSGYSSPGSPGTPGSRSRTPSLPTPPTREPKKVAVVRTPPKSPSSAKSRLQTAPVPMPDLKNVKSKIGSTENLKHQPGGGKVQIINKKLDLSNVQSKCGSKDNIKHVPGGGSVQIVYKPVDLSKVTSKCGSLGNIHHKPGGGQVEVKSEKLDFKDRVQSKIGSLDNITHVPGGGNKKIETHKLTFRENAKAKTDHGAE

B1: AX002, humanized DC8E8 RHB/RKA (isotype not stated where tested) (antibody)
VH: QVQLVQSGPEVKKPGSSVKVPCKASGYIFTDYVISWVKQAPGQGLEWIGEIFPRSGSTYYNEKFKGKATLTADKSTSTAYMELSSLRSEDTAVYFCARDYYGTSFAMDYWGQGTLVTVSS
light: DIVMTQSPLSLPVTPGEPASISCKSSQSLLNSRTRKNYLAWYLQKPGQSPQLLIYWASTRESGVPDRFTGSGSGTDFTLKISRVEAEDVGVYYCKQSFYLRTFGQGTKVEIKRTVAAPSVFIFPPSDEQLKSGTASVVCLLNNFYPREAKVQWKVDNALQSGNSQESVTEQDSKDSTYSLSSTLTLSKADYEKHKVYACEVTHQGLSSPVTKSFNRGEC
B1: the binding result was “binds”.
